Values of other authors as cited in article PMC9313270.

Target: leptin (UniProt P41159)
Test: not stated (listed for the qPCR aptasensor, 'This work')
Conditions: leptin binding buffer (composition not given); aptamer-adaptor annealing 15 min at 37 C, leptin incubation 30 min at 37 C, polymerase extension 10 min at 60 C …

Sequence of leptin (P41159 22-167): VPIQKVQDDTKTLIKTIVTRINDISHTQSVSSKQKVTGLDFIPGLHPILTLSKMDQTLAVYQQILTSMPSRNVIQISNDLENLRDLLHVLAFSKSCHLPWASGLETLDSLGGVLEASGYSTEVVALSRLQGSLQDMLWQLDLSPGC

For “GTTAATGGGGGATCTCGCGGCCGTTCTTGTTGCTTATACA [leptin aptamer (Ashley and Li)]”, the Kd is given as 1500 nM.
